Assay [1] concerns the target T1, ALPL (Homo sapiens, UniProt P05186).
T1 sequence (P05186 18-501): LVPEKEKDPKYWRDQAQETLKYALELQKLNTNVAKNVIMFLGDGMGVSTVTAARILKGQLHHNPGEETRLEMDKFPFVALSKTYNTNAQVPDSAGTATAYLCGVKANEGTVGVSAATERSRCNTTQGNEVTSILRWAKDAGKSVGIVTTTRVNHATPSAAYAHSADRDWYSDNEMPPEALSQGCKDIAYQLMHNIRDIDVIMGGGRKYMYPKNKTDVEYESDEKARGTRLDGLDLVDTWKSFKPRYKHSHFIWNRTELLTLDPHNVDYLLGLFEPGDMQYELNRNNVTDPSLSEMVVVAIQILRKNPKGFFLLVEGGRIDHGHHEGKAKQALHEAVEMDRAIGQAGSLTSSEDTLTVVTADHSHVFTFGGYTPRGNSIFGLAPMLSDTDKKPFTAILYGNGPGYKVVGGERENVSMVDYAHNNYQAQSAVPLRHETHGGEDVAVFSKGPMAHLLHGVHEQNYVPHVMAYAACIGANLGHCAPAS
Description: Inhibition of TTM-002 transduction by small molecule ALPL inhibitors in HeLa cells expressing ALPL. Type of assay: cell-based. Also on record: endogenous in cells; host or cells: HeLa. How it is done: An inhibitor of ALPL was also investigated to determine if blocking the ALPL receptor would reduce cellular transduction of the TTM-002 capsid variant. […] The inhibitor or a vehicle control (equivalent amount of DMSO) was added to HeLa cells expressing ALPL 1 hour prior to transduction with an AAV viral particle comprising the TTM-002 capsid variant or an AAV9 control capsid and expressing a GFP-luciferase transgene under the control of a CAG promoter. The cells were then transduced with 1E4 VG/cell of an AAV particle comprising the TTM-002 capsid variant or an AAV9 control capsid. Media and virus were removed 4 hours post transduction and luciferase activity was measured (RLU) 24 hours post transduction.

For assay [2], the target named is T2, human ALPL expressed on cells (alkaline phosphatase tissue-nonspecific isozyme, NM_000478.4) (human, UniProt P05186 18-501).
T2 sequence: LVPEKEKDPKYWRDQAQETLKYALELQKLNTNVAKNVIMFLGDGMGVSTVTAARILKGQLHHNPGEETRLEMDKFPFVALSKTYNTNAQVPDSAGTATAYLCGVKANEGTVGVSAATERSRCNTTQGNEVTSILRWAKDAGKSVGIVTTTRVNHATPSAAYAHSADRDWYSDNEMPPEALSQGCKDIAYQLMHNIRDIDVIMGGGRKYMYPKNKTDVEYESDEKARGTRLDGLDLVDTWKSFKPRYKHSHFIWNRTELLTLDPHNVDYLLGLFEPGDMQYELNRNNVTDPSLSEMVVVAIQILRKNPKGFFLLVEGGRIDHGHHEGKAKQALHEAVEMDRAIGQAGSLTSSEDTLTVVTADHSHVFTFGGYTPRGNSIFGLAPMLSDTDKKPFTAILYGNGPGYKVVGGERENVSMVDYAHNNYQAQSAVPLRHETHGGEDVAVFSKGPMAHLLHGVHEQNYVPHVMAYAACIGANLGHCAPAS
Put plainly: cell-based or functional assay.

The target of assay [3] is T3, AAVR (universal AAV entry factor) expressed on HEK 293T cells (UniProt Q8IZA0 1-1049).
T3 construct: whole, on cells; also called AAVR positive control
T3 sequence: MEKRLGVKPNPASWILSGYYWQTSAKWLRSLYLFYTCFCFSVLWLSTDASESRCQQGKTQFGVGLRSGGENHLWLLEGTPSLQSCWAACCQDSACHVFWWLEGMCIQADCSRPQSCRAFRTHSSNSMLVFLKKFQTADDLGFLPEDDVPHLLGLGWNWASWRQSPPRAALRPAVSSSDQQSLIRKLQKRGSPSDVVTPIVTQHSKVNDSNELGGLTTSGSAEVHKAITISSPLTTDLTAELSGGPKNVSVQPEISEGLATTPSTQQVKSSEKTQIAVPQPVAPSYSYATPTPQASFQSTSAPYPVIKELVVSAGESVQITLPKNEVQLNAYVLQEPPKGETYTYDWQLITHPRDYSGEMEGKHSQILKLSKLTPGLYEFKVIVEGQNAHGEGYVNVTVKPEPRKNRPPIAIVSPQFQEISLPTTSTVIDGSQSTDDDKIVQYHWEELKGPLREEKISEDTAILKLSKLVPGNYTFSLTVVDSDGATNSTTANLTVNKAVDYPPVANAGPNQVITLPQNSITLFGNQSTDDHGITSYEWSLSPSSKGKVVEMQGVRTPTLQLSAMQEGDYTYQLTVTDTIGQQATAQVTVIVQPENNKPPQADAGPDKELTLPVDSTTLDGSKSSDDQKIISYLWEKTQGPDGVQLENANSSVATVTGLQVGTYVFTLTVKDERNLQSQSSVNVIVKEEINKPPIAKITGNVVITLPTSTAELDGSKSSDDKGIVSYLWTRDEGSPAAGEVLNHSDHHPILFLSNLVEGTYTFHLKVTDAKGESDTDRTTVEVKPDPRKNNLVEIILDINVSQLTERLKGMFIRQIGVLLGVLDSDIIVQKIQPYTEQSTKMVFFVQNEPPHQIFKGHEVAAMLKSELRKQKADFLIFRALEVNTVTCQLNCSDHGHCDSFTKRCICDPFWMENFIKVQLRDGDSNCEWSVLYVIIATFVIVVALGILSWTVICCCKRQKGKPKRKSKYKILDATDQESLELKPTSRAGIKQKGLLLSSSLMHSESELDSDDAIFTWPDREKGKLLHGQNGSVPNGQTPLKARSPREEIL
Description: binding/internalization: AAV incubated 2 or 3 h with AAVR transfected HEK 293T cells, washed, viral genomes quantified.

In assay [4] the target is T2, human ALPL expressed on cells (alkaline …). Put plainly: binding/internalization: AAV incubated 2 or 3 h with ALPL transfected HEK 293T cells, washed, viral genomes quantified.
Assay [5] has the same target. Put plainly: cell-based or functional assay. The source holds these as a separate data set.
Assay [6] deals with T4, ALPL with a deletion of the ER localization signal (ALPL transcript variant 2, NM_001127501) (human, UniProt P05186 56-501).
T4 sequence: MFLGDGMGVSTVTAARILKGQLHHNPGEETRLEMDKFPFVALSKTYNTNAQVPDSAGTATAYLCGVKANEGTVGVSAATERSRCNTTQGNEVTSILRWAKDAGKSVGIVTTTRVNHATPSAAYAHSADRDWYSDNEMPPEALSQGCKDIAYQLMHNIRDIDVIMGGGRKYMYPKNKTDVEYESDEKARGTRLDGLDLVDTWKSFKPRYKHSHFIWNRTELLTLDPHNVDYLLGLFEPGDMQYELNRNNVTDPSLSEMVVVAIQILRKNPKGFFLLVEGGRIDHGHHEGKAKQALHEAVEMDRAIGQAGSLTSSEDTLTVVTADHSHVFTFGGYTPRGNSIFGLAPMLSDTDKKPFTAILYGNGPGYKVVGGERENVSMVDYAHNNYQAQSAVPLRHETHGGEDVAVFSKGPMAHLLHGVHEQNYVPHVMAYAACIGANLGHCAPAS
Put plainly: cell-based or functional assay.

In assay [7] the target is T5, murine ALPL ortholog expressed on HEK 293T cells (NM_001287172.1) (mouse, UniProt P09242 18-501).
T5 sequence: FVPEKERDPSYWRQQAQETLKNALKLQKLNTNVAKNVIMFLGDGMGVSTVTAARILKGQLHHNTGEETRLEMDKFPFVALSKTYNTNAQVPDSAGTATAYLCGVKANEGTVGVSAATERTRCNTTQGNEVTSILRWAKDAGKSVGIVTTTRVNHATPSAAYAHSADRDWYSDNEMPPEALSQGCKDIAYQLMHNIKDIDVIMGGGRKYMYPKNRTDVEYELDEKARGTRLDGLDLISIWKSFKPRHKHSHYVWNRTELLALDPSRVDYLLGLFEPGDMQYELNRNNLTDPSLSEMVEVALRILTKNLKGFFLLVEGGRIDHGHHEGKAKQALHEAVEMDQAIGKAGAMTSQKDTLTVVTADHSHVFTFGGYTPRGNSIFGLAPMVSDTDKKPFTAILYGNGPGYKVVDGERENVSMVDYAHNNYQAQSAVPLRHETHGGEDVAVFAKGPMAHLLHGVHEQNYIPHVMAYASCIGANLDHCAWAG
Description: cell-based or functional assay.

In assay [8] the target is T2, human ALPL expressed on cells (alkaline …). Put plainly: cell-based or functional assay. This is another data set of the same source.

With `COc1ccc(Cl)cc1S(=O)(=O)Nc1cncc(C(N)=O)c1` [SBI-425, 5-((5-chloro-2-methoxyphenyl)sulfonamido) nicotinamide], in assay [1], it took 0.34 nM to reach half-maximal inhibition (IC50) and the “effect on TTM-002 transduction” value is reported as “significantly inhibited TTM-002 transduction”.

B1: TTM-001 capsid variant (AAV particle comprising the TTM-001 AAV9 capsid variant) (other)
chain 1: MAADGYLPDWLEDNLSEGIREWWALKPGAPQPKANQQHQDNARGLVLPGYKYLGPGNGLDKGEPVNAADAAALEHDKAYDQQLKAGDNPYLKYNHADAEFQERLKEDTSFGGNLGRAVFQAKKRLLEPLGLVEEAAKTAPGKKRPVEQSPQEPDSSAGIGKSGAQPAKKRLNFGQTGDTESVPDPQPIGEPPAAPSGVGSLTMASGGGAPVADNNEGADGVGSSSGNWHCDSQWLGDRVITTSTRTWALPTYNNHLYKQISNSTSGGSSNDNAYFGYSTPWGYFDFNRFHCHFSPRDWQRLINNNWGFRPKRLNFKLFNIQVKEVTDNNGVKTIANNLTSTVQVFTDSDYQLPYVLGSAHEGCLPPFPADVFMIPQYGYLTLNDGSQAVGRSSFYCLEYFPSQMLRTGNNFQFSYEFENVPFHSSYAHSQSLDRLMNPLIDQYLYYLSKTINGSGSPHSKAQNQQTLKFSVAGPSNMAVQGRNYIPGPSYRQQRVSTTVTQNNNSEFAWPGASSWALNGRNSLMNPGPAMASHKEGEDRFFPLSGSLIFGKQGTGRDNVDADKVMITNEEEIKTTNPVATESYGQVATNHQSAQAQAQTGWVQNQGILPGMVWQDRDVYLQGPIWAKIPHTDGNFHPSPLMGGFGMKHPPPQILIKNTPVPADPPTAFNKDKLNSFITQYSTGQVSVEIEWELQKENSKRWNPEIQYTSNYYKSNNVEFAVNTEGVYSEPRPIGTRYLTRNL
chain 2: TAPGKKRPVEQSPQEPDSSAGIGKSGAQPAKKRLNFGQTGDTESVPDPQPIGEPPAAPSGVGSLTMASGGGAPVADNNEGADGVGSSSGNWHCDSQWLGDRVITTSTRTWALPTYNNHLYKQISNSTSGGSSNDNAYFGYSTPWGYFDFNRFHCHFSPRDWQRLINNNWGFRPKRLNFKLFNIQVKEVTDNNGVKTIANNLTSTVQVFTDSDYQLPYVLGSAHEGCLPPFPADVFMIPQYGYLTLNDGSQAVGRSSFYCLEYFPSQMLRTGNNFQFSYEFENVPFHSSYAHSQSLDRLMNPLIDQYLYYLSKTINGSGSPHSKAQNQQTLKFSVAGPSNMAVQGRNYIPGPSYRQQRVSTTVTQNNNSEFAWPGASSWALNGRNSLMNPGPAMASHKEGEDRFFPLSGSLIFGKQGTGRDNVDADKVMITNEEEIKTTNPVATESYGQVATNHQSAQAQAQTGWVQNQGILPGMVWQDRDVYLQGPIWAKIPHTDGNFHPSPLMGGFGMKHPPPQILIKNTPVPADPPTAFNKDKLNSFITQYSTGQVSVEIEWELQKENSKRWNPEIQYTSNYYKSNNVEFAVNTEGVYSEPRPIGTRYLTRNL
chain 3: MASGGGAPVADNNEGADGVGSSSGNWHCDSQWLGDRVITTSTRTWALPTYNNHLYKQISNSTSGGSSNDNAYFGYSTPWGYFDFNRFHCHFSPRDWQRLINNNWGFRPKRLNFKLFNIQVKEVTDNNGVKTIANNLTSTVQVFTDSDYQLPYVLGSAHEGCLPPFPADVFMIPQYGYLTLNDGSQAVGRSSFYCLEYFPSQMLRTGNNFQFSYEFENVPFHSSYAHSQSLDRLMNPLIDQYLYYLSKTINGSGSPHSKAQNQQTLKFSVAGPSNMAVQGRNYIPGPSYRQQRVSTTVTQNNNSEFAWPGASSWALNGRNSLMNPGPAMASHKEGEDRFFPLSGSLIFGKQGTGRDNVDADKVMITNEEEIKTTNPVATESYGQVATNHQSAQAQAQTGWVQNQGILPGMVWQDRDVYLQGPIWAKIPHTDGNFHPSPLMGGFGMKHPPPQILIKNTPVPADPPTAFNKDKLNSFITQYSTGQVSVEIEWELQKENSKRWNPEIQYTSNYYKSNNVEFAVNTEGVYSEPRPIGTRYLTRNL
On to B1, for which, in assay [2], the “luciferase activity, fold change relative to pCMV6 transfected HEK 293T cells (ALPL transfected cells)” value was 35 fold. The “fold change in viral gene expression (2^-ΔΔCT) relative to pCMV6 transfected cells” value was 6.64 fold in assay [3] and 3.16 fold in assay [4]. Further, the “fold change in luciferase activity relative to the pCMV6 control cells (cells transfected with ALPL)” value in assay [5] was found to be 22 fold. In assay [6], the “fold change in luciferase activity relative to the pCMV6 control cells (cells transfected with ALPL comprising a deletion of the ER localization signal)” value was determined as 2 fold. Also, the “fold change in luciferase activity relative to the pCMV6 control cells (cells transfected with murine ALPL protein)” value in assay [7] came to 18 fold. In addition, the “fold change in luciferase activity relative to the pCMV6 control cells (cells transfected with human ALPL protein)” value in assay [8] is 22 fold.

For the origin of these results see patent publication US20260250318A1, “COMPOSITIONS AND METHODS FOR CROSSING THE BLOOD BRAIN BARRIER” (VOYAGER THERAPEUTICS, INC., priority 2022, published 2026).
